# Data as given in the supplement of paper PMC10126150.
# ± gives the standard deviation of the averaged measurements.
# System: ATP
# Test: switch fluorescence ratio, 500 uM ATP over buffer (Cy3 cluster intensity, sum of 5 cycles each) (fold (ratio)); higher = stronger signal-on switching upon ATP binding; sequences stand for … in TCGTCGGCAGCGTCAGATGTGTATAAGAGACAGTTTTTTTTTTTTTTTTTTTTTTTTT…TC
# Conditions: aptamer strand: ATP DNA aptamer (quencher-CACCTGGGGGAGTATTGCGGAGGAAGG + anchor), 100 nM annealed; ATP concentration: 500 uM
# Method in brief: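 Imaging in selection buffer was followed by imaging after 15 min with 500 uM ATP at 22 °C, for Cy3-labelled switching-strand clusters annealed to 100 nM quencher-labelled ATP aptamer on a modified Illumina MiSeq flow-cell. Five of these buffer/ATP cycles ran, separated by NaOH stripping and re-annealing. The fluorescence ratio per cluster is summed target-cycle over summed buffer-cycle Cy3 intensity, averaged per switch-domain sequence; clusters outside 100-1000 RFU were removed.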
# 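Also: ATP exposure 15 min at 22 °C before imaging.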
sequence,measurement,value
AGATGCTGGT,switch fluorescence ratio,0.994 ± 0.015
ACGATTGTCT,switch fluorescence ratio,0.973 ± 0.037
GGGTCCAAAT,switch fluorescence ratio,1.02 ± 0.04
GGGCCATATT,switch fluorescence ratio,0.963 ± 0.044
GAGTTTAGCG,switch fluorescence ratio,0.982 ± 0.025
ATGCTATGCG,switch fluorescence ratio,1.008 ± 0.01
TTTTAAGGG,switch fluorescence ratio,1.02 ± 0.022
AAGGTTTCAA,switch fluorescence ratio,0.985 ± 0.018
GGTAGTCTTT,switch fluorescence ratio,0.996 ± 0.02
TTTTTAAGCT,switch fluorescence ratio,1.02 ± 0.019
ACGTGTAGGA,switch fluorescence ratio,1.0005 ± 0.00069
TTAATGTTTG,switch fluorescence ratio,0.997 ± 0.042
TTTGGGAGGT,switch fluorescence ratio,0.99 ± 0.063
ATAGTATATG,switch fluorescence ratio,0.9786 ± 0.0088
ATCGGACGCG,switch fluorescence ratio,0.987 ± 0.016
TTGCTCTCTG,switch fluorescence ratio,1.03 ± 0.031
GCGTGTTCGT,switch fluorescence ratio,1.031 ± 0.0084
ACTTGGTGTG,switch fluorescence ratio,1.01 ± 0.052
TTATCGTGTT,switch fluorescence ratio,0.984 ± 0.042
TTAGGGACAG,switch fluorescence ratio,0.987 ± 0.027
ACACTCTTGA,switch fluorescence ratio,1.03 ± 0.025
TGTGAAGGTT,switch fluorescence ratio,0.986 ± 0.054
TTTTGGGTAC,switch fluorescence ratio,0.995 ± 0.04
TTATAAGTAT,switch fluorescence ratio,1 ± 0.031
AATAATAGCT,switch fluorescence ratio,1.01 ± 0.041
TAATGTATGT,switch fluorescence ratio,0.977 ± 0.018
ATGGGGGGT,switch fluorescence ratio,0.992 ± 0.028
GGAAGTGGGA,switch fluorescence ratio,1.018 ± 0.0069
TGATGGGTTG,switch fluorescence ratio,1 ± 0.03
ATAGATTGCC,switch fluorescence ratio,0.993 ± 0.022
GCGTAAAACG,switch fluorescence ratio,0.977 ± 0.04
CTGGGTAGGC,switch fluorescence ratio,0.992 ± 0.018
GCATAGCAAT,switch fluorescence ratio,1.054 ± 0.003
AATTAAAGTT,switch fluorescence ratio,0.98603 ± 0.00086
TGATGGCCCG,switch fluorescence ratio,1.03 ± 0.092
AGTCGCCCTG,switch fluorescence ratio,0.985 ± 0.05
GCGCCAAGGA,switch fluorescence ratio,1.08 ± 0.09
TGGGTAACGA,switch fluorescence ratio,0.962 ± 0.021
TTGCCGCTGT,switch fluorescence ratio,1.18 ± 0.22
GGGGTGGGCT,switch fluorescence ratio,0.956 ± 0.031
GGAGGGATAA,switch fluorescence ratio,1.1 ± 0.054
TGGTTGGGGC,switch fluorescence ratio,0.986 ± 0.023
CTTGTAGGGT,switch fluorescence ratio,1.01 ± 0.021
CTGAAATGGT,switch fluorescence ratio,0.9928 ± 0.0041
CGGACCGATG,switch fluorescence ratio,1.01 ± 0.0094
TTTTTTTGAG,switch fluorescence ratio,1.02 ± 0.026
GAGGTGCTGA,switch fluorescence ratio,1 ± 0.061
GCAGACGGTG,switch fluorescence ratio,1.05 ± 0.013
GGAGTATGGG,switch fluorescence ratio,0.997 ± 0.029
CGATGGGGTG,switch fluorescence ratio,0.998 ± 0.025
TGGTTGGCGG,switch fluorescence ratio,1.03 ± 0.062
AAGTTATTAC,switch fluorescence ratio,1 ± 0.032
CACTAGTTTT,switch fluorescence ratio,1.01 ± 0.012
GATCTGCACG,switch fluorescence ratio,0.9947 ± 0.0032
GGGCGTCGTC,switch fluorescence ratio,0.993 ± 0.052
ATAGGCGGTT,switch fluorescence ratio,1.02 ± 0.012
AAGAAATTTG,switch fluorescence ratio,0.992 ± 0.015
TCCGGGGTGT,switch fluorescence ratio,1.26 ± 0.44
GTGTTATATT,switch fluorescence ratio,1.004 ± 0.0089
GGGTTTGAGG,switch fluorescence ratio,0.9806 ± 0.0072
TTGAGAGTTG,switch fluorescence ratio,0.984 ± 0.046
GGGTTCGACA,switch fluorescence ratio,0.998 ± 0.019
TTTGTCAGTT,switch fluorescence ratio,0.956 ± 0.043
AAGTTTGGGC,switch fluorescence ratio,0.98 ± 0.036
ATATAAATTT,switch fluorescence ratio,1 ± 0.025
ATCGGGAGAT,switch fluorescence ratio,0.9833 ± 0.0076
TTGCCGGTTT,switch fluorescence ratio,1.05 ± 0.021
TGGGGATTAA,switch fluorescence ratio,0.991 ± 0.013
TGAAAAGAAG,switch fluorescence ratio,1.029 ± 0.0061
AAGTGGAGGG,switch fluorescence ratio,0.985 ± 0.021
TGTTTGAAGT,switch fluorescence ratio,0.989 ± 0.023
GTGAGCCAGT,switch fluorescence ratio,1.01 ± 0.022
TGTTTAATGT,switch fluorescence ratio,1.01 ± 0.019
CGTTTGGGGG,switch fluorescence ratio,0.987 ± 0.021
ATAAGACCCG,switch fluorescence ratio,0.98609 ± 0.00056
TATTAATGTG,switch fluorescence ratio,0.974 ± 0.042
CCGAGTGCAG,switch fluorescence ratio,2.24 ± 0.33
GATGTATGTG,switch fluorescence ratio,1.02 ± 0.042
AGGTAGGCGT,switch fluorescence ratio,0.97539 ± 0.00061
TGTTACCGG,switch fluorescence ratio,1.004 ± 0.0037
TAAGGCTGAC,switch fluorescence ratio,1.15 ± 0.023
AGGTCTATGC,switch fluorescence ratio,0.975 ± 0.016
TCATGGAGTA,switch fluorescence ratio,0.981 ± 0.08
GGCTGAAGGG,switch fluorescence ratio,0.996 ± 0.014
AAAATCTAGT,switch fluorescence ratio,1.014 ± 0.0081
CAAGCAAGAT,switch fluorescence ratio,2.58 ± 0.24
GGTTTAGTTG,switch fluorescence ratio,0.9744 ± 0.0062
GTCACGGGCG,switch fluorescence ratio,1.006 ± 0.0091
GGTGGGGGG,switch fluorescence ratio,0.977 ± 0.012
GTAATAGGAG,switch fluorescence ratio,1.02 ± 0.039
TTTGCTTTCC,switch fluorescence ratio,1.2 ± 0.17
TTTTTTAATT,switch fluorescence ratio,1.03 ± 0.071
AATTGCTTGT,switch fluorescence ratio,0.978 ± 0.02
GACTTATGGG,switch fluorescence ratio,1.04 ± 0.033
GGGGTATACT,switch fluorescence ratio,1.021 ± 0.0052
GTTATTTTAC,switch fluorescence ratio,1.01 ± 0.031
GGTGGGTGGA,switch fluorescence ratio,1 ± 0.021
TCCTCAGGTG,switch fluorescence ratio,4.07 ± 0.33
CATTAGCTGG,switch fluorescence ratio,1.03 ± 0.002
TAGAATTTTT,switch fluorescence ratio,0.998 ± 0.017
CTTCGTATGG,switch fluorescence ratio,1 ± 0.029
CGGTGAGGGA,switch fluorescence ratio,0.978 ± 0.044
TTTTACGCCG,switch fluorescence ratio,1.09 ± 0.041
AACGGGATTA,switch fluorescence ratio,0.987 ± 0.047
AGGAAAAAAG,switch fluorescence ratio,1 ± 0.032
GGTTGGGGGA,switch fluorescence ratio,1.02 ± 0.024
TGTGATTGGG,switch fluorescence ratio,0.988 ± 0.017
TAAGGGGTAC,switch fluorescence ratio,1 ± 0.013
TTTTTTGTCT,switch fluorescence ratio,0.993 ± 0.021
AGGTTTATTT,switch fluorescence ratio,1.02 ± 0.018
AGGAATTTGT,switch fluorescence ratio,1.035 ± 0.0091
GTTGAACGGT,switch fluorescence ratio,1.1 ± 0.053
GGAAATTTGG,switch fluorescence ratio,0.993 ± 0.037
AAACGGTATT,switch fluorescence ratio,1.09 ± 0.083
GCTTGCTCCG,switch fluorescence ratio,4.46 ± 0.87
GTTATCAGTT,switch fluorescence ratio,0.99 ± 0.014
ACGGGCGACG,switch fluorescence ratio,1.02 ± 0.025
CTGTTGTTG,switch fluorescence ratio,1 ± 0.01
GATGTTAAGC,switch fluorescence ratio,0.9867 ± 0.0095
GCCGTCTTGA,switch fluorescence ratio,1.01 ± 0.041
TAGGGGGTTC,switch fluorescence ratio,1.01 ± 0.027
GGGTTTGCAC,switch fluorescence ratio,1.03 ± 0.026
CGCGGAGCTT,switch fluorescence ratio,1.03 ± 0.033
ATCCTTGCG,switch fluorescence ratio,1.022 ± 0.0053
GAACGGTGTG,switch fluorescence ratio,0.996 ± 0.0057
AATTCGTCGG,switch fluorescence ratio,1.02 ± 0.045
CCGCGGGGGG,switch fluorescence ratio,1.08 ± 0.088
CATGACATTT,switch fluorescence ratio,1.06 ± 0.028
CGTTGTCATC,switch fluorescence ratio,1.01 ± 0.06
TGGATTAGGC,switch fluorescence ratio,1.01 ± 0.048
GTCGGTGTTG,switch fluorescence ratio,0.98952 ± 0.00042
AGTTTTTAAT,switch fluorescence ratio,0.999 ± 0.018
TTTTTAGGCG,switch fluorescence ratio,0.978 ± 0.028
AAGAGTGTGG,switch fluorescence ratio,1.02 ± 0.058
CAGGGTGAGT,switch fluorescence ratio,1.01 ± 0.022
CTGGGAGGCA,switch fluorescence ratio,0.9871 ± 0.0098
GGGGGGATTT,switch fluorescence ratio,1.02 ± 0.063
TTTGAGTTAA,switch fluorescence ratio,0.994 ± 0.037
TATTATGATC,switch fluorescence ratio,1.03 ± 0.02
TTTCTGGTTG,switch fluorescence ratio,1.022 ± 0.0078
TAGATGGGGA,switch fluorescence ratio,0.977 ± 0.035
TGGAAAGTTT,switch fluorescence ratio,1 ± 0.052
TTCTGTGGTG,switch fluorescence ratio,1.01 ± 0.028
GGCGCAGGAG,switch fluorescence ratio,1.092 ± 0.0082
CTATAGTCAA,switch fluorescence ratio,1.38 ± 0.026
GGGTTAAGTG,switch fluorescence ratio,1.02 ± 0.018
ATAACGTAGC,switch fluorescence ratio,1.11 ± 0.059
CACTGCGCGC,switch fluorescence ratio,1.11 ± 0.017
ACAGTCATGG,switch fluorescence ratio,1.021 ± 0.0092
TTCGTGGGCT,switch fluorescence ratio,1.02 ± 0.045
TAGGGCCGTG,switch fluorescence ratio,0.977 ± 0.0059
GCGGCTGATG,switch fluorescence ratio,1.02 ± 0.012
GCATCATGTT,switch fluorescence ratio,0.987 ± 0.044
